B1: mRNA-decapping enzyme-like protein (Arabidopsis thaliana (Mouse-ear cress)), Q9SJF3 (parent)
chain: MSQNGKIIPNLDQNSTRLLNLTVLQRIDPYIEEILITAAHVTFYEFNIELSQWSRKDVEGSLFVVKRSTQPRFQFIVMNRRNTDNLVENLLGDFEYEVQGPYLLYRNASQEVNGIWFYNKRECEEVATLFNRILSAYSKVNQKPKASSSKSEFEELEAKPTMAVMDGPLEPSSTARDAPDDPAFVNFFSSTMNLGNTASGSASGPYQSSAIPHQPHQPHQPTIAPPVAAAAPPQIQSPPPLQSSSPLMTLFDNNPEVISSNSNIHTDLVTPSFFGPPRMMAQPHLIPGVSMPTAPPLNPNNASHQQRSYGTPVLQPFPPPTPPPSLAPAPTGPVISRDKVKEALLSLLQEDEFIDKITRTLQNALQQ
partner: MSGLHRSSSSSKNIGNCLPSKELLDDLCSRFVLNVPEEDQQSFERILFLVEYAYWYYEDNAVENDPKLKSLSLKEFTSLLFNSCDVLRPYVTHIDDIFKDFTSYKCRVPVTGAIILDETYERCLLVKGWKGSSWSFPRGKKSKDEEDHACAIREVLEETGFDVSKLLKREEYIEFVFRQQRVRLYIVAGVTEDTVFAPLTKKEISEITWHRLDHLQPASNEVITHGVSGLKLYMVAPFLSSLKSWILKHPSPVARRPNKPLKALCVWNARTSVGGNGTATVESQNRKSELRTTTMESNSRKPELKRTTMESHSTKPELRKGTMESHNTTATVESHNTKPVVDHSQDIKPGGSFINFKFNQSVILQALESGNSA

Variants of: B1
Conditions: with dcp2_arath DCP2, Q8GW31

Variant	effect of a mutation on the interaction
S237D	increasing interaction

Source: IntAct's records for PubMed 22407295
